Experimental data taken from patent US20150093386A1.

Assays:
Test in all cases: cell-based or functional assay
[1] = biological target: endogenous EGFR at low level on U87 MG cells (human) (UniProt P00533)
[2] = biological target: EGFR overexpressed on U87 MG EGFR cells (UniProt P00533)
[3] = biological target: EGFRvIII (EGFR with deletion of exons 2-7) on U87 MG-EGFRvIII cells (human) (UniProt P00533)

With humanized monoclonal antibody ch806 as the substance, how does the cytotoxicity % at 0.0002 nM, U87 MG cells with PBMC [1] read?
The cytotoxicity % at 0.0002 nM, U87 MG cells with PBMC was 0.96%.

What about the cytotoxicity % at 0.002 nM, U87 MG cells with PBMC [1] of the same substance?
Its cytotoxicity % at 0.002 nM, U87 MG cells with PBMC is 0.71%.

And the cytotoxicity % at 0.02 nM, U87 MG cells with PBMC [1]?
Its cytotoxicity % at 0.02 nM, U87 MG cells with PBMC is 0.71%.

What about the cytotoxicity % at 0.2 nM, U87 MG cells with PBMC [1] of the same substance?
Its cytotoxicity % at 0.2 nM, U87 MG cells with PBMC is 0.07%.

And the cytotoxicity % at 2 nM, U87 MG cells with PBMC [1]?
Its cytotoxicity % at 2 nM, U87 MG cells with PBMC is 0.28%.

What about the cytotoxicity % at 20 nM, U87 MG cells with PBMC [1] of the same substance?
The cytotoxicity % at 20 nM, U87 MG cells with PBMC was 4.18%.

What about the EC50 values of cytotoxicity on MG-EGFR cells [2] of the same substance?
The EC50 values of cytotoxicity on MG-EGFR cells was 6.48 µM.

What about the cytotoxicity % at 0.0002 nM, U87 MG EGFR cells with PBMC [2] of the same substance?
Its cytotoxicity % at 0.0002 nM, U87 MG EGFR cells with PBMC is 1.89%.

What about the cytotoxicity % at 0.002 nM, U87 MG EGFR cells with PBMC [2] of the same substance?
Its cytotoxicity % at 0.002 nM, U87 MG EGFR cells with PBMC is 0.61%.

What about the cytotoxicity % at 0.02 nM, U87 MG EGFR cells with PBMC [2] of the same substance?
Its cytotoxicity % at 0.02 nM, U87 MG EGFR cells with PBMC is 1.31%.

And the cytotoxicity % at 0.2 nM, U87 MG EGFR cells with PBMC [2]?
Its cytotoxicity % at 0.2 nM, U87 MG EGFR cells with PBMC is 0.37%.

What about the cytotoxicity % at 2 nM, U87 MG EGFR cells with PBMC [2] of the same substance?
The cytotoxicity % at 2 nM, U87 MG EGFR cells with PBMC was 0.49%.

And the cytotoxicity % at 20 nM, U87 MG EGFR cells with PBMC [2]?
The cytotoxicity % at 20 nM, U87 MG EGFR cells with PBMC was 4.92%.

And the EC50 values of cytotoxicity on U87 MG-EGFRvIII cells [3]?
Its EC50 values of cytotoxicity on U87 MG-EGFRvIII cells is 0.0408 µM.

What about the cytotoxicity % at 0.0002 nM, U87 MG EGFRvIII cells with PBMC [3] of the same substance?
The cytotoxicity % at 0.0002 nM, U87 MG EGFRvIII cells with PBMC was 0.41%.

And the cytotoxicity % at 0.002 nM, U87 MG EGFRvIII cells with PBMC [3]?
The cytotoxicity % at 0.002 nM, U87 MG EGFRvIII cells with PBMC was 0.62%.

What about the cytotoxicity % at 0.02 nM, U87 MG EGFRvIII cells with PBMC [3] of the same substance?
The cytotoxicity % at 0.02 nM, U87 MG EGFRvIII cells with PBMC was 0.76%.

What about the cytotoxicity % at 0.2 nM, U87 MG EGFRvIII cells with PBMC [3] of the same substance?
Its cytotoxicity % at 0.2 nM, U87 MG EGFRvIII cells with PBMC is 15.6%.

And the cytotoxicity % at 2 nM, U87 MG EGFRvIII cells with PBMC [3]?
The cytotoxicity % at 2 nM, U87 MG EGFRvIII cells with PBMC was 22.3%.

And the cytotoxicity % at 20 nM, U87 MG EGFRvIII cells with PBMC [3]?
Its cytotoxicity % at 20 nM, U87 MG EGFRvIII cells with PBMC is 36.3%.
